Experimental data published in article PMC8978939, “VHL-P138R and VHL-L163R Novel Variants: Mechanisms of VHL Pathogenicity Involving HIF-Dependent and HIF-Independent Actions” (Frontiers in Endocrinology, 2022).

Legend:
VHL-L163R-Venus = target: T1, VHL-L163R-Venus (human, UniProt P40337 1-213, L163R); experiment: co-IP; GFP-Trap_A kit on 1 mg protein from 786-0 cell lines stably expressing VHL-Venus (WT, P138R, L163R) or GFP; Western blot for Elongin B and Elongin C; band ratios Elongin/pVHL normalised to WT set as 1; conditions: partners not purified
T1 construct: von Hippel-Lindau protein (pVHL), human, patient variant L163R (CTC to CGC) made by site-directed mutagenesis of VHL-WT-Venus-Retro; Variant found in patients with VHL disease (type 2C); also called L163R VHL-Venus; L163R pVHL
T1 sequence (P40337 whole entry L163R): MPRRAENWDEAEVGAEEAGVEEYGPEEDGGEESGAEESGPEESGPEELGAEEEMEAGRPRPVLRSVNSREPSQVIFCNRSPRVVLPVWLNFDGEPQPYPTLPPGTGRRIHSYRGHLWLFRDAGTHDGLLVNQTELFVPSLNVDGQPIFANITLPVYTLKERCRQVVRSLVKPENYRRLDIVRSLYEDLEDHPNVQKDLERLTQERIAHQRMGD

VHL-P138R-Venus = target: T2, VHL-P138R-Venus (human, UniProt P40337 1-213, P138R); experiment: as above; conditions: partners not purified
T2 construct: von Hippel-Lindau protein (pVHL), human, patient variant P138R (CCA to CGA) made by site-directed mutagenesis of VHL-WT-Venus-Retro; Variant found in patients with VHL disease (type 2B); also called P138R VHL-Venus; P138R pVHL
T2 sequence (P40337 whole entry P138R): as the sequence (P40337 whole entry L163R) above, with P138R, R163L counted along it

ratio Elongin B/pVHL, normalised to WT pVHL set as 1 (VHL-L163R-Venus): 0.25
ratio Elongin B/pVHL, normalised to WT pVHL set as 1 (VHL-P138R-Venus): ~0.6
B1: Elongin B (natural protein, human (endogenous in 786-0), UniProt Q15370 1-118, looked up)
chain: MDVFLMIRRHKTTIFTDAKESSTVFELKRIVEGILKRPPDEQRLYKDDQLLDDGKTLGECGFTSQTARPQAPATVGLAFRADDTFEALCIEPFSSPPELPDVMKPQDSGSSANEQAVQ
notes: also called EloB; source: endogenous, 786-0 RCC cell lysate
